Assay results published in patent US20250152742A1, “COMPOSITIONS AND METHODS FOR NEUROLOGICAL DISEASES” (Trames Bio, Inc., priority 2022, published 2025).

System: engineered chimeric receptor SEQ ID NO: 33 and its mutants (human α7-nAChR ligand binding domain / human GlyRα1 ion pore domain) in Lenti-X 293T cells
Assay: YFP fluorescence quenching anion reporter plate reader assay (percent quench, EC50)
Type: cell-based
Conditions: for YFP fluorescence quenching using CNL001 (percent quench): receptor named in row
How it was run: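 Lenti-X 293T cells co-expressing an anion-quenchable YFP were transiently transfected with receptor DNA, then ligand was added in NaI-substituted buffer (pH 7.2) after 30 min at 37 °C. Fluorescence was read about 2 min; percent quench = mean of last 10 s over 15 s pre-ligand baseline.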

B1: CODA806: engineered receptor: Y115D, L131Q in SEQ ID NO: 33 (Chemogenic receptor-11) (protein)
chain: MRCSPGGVWLALAASLLHVSLQGEFQRKLYKELVKNYNPLERPVANDSQPLTVYFSLSLLQIMDVDEKNQVLTTNIWLQMSWTDHYLQWNVSEYPGVKTVRFPDGQIWKPDILLDNSADERFDATFHTNVQVNSSGHCQYLPPGIFKSSCPMDLKNFPMDVQTCKLKFGSWSYGGWSLDLQMQEADISGYIPNGEWDLVGIPGKRSERFYECCKEPYPDVTFTVTMRRRMGYYLIQMYIPSLLIVILSWISFWINMDAAPARVGLGITTVLTMTTQSSGSRASLPKVSYVKAIDIWMAVCLLFVFSALLEYAAVNFVSRQHKELLRFRRKRRHHKSPMLNLFQEDEAGEGRFNFSAYGMGPACLQAKDGISVKGANNSNTTNPPPAPSKSPEEMRKLFIQRAKKIDKISRIGFPMAFLIFNMFYWIIYKIVRREDVHNQ
modifications: synthetic sequence of chimeric LGIC
- YFP fluorescence quenching using CNL001 (percent quench) (1 nM CNL001, first column so headed): 6.587%
- YFP fluorescence quenching using CNL001 (percent quench) (1 nM CNL001, second column so headed): −5.179%
- YFP fluorescence quenching using TC-5619/Bradanicline (percent quench) (1 nM brd (TC-5619/Bradanicline)): 0.92%
- YFP fluorescence quenching using TC-5619/Bradanicline (percent quench) (3 nM brd (TC-5619/Bradanicline)): −4.65%
- YFP fluorescence quenching using CNL001 (percent quench) (10 nM CNL001, first column so headed): −2.366%
- YFP fluorescence quenching using CNL001 (percent quench) (10 nM CNL001, second column so headed): −1.272%
- YFP fluorescence quenching using TC-5619/Bradanicline (percent quench) (10 nM brd (TC-5619/Bradanicline)): 0.38%
- YFP fluorescence quenching using TC-5619/Bradanicline (percent quench) (30 nM brd (TC-5619/Bradanicline)): −8.96%
- YFP fluorescence quenching using CNL001 (percent quench) (50 nM CNL001, first column so headed): 2.763%
- YFP fluorescence quenching using CNL001 (percent quench) (50 nM CNL001, second column so headed): 1.995%
- YFP fluorescence quenching using ABT-126 (percent quench) (50 nM abt (ABT-126)): −1.81%
- YFP fluorescence quenching using CNL001 (percent quench) (100 nM CNL001, first column so headed): 3.091%
- YFP fluorescence quenching using CNL001 (percent quench) (100 nM CNL001, second column so headed): 1.45%
- YFP fluorescence quenching (percent quench) (100 nM CNL002): −10.03%
- YFP fluorescence quenching using ABT-126 (percent quench) (100 nM abt (ABT-126)): −2.61%
- YFP fluorescence quenching using AZD-0328 (percent quench) (100 nM azd0328): 12.15%
- YFP fluorescence quenching using TC-5619/Bradanicline (percent quench) (100 nM brd (TC-5619/Bradanicline)): 12.18%
- YFP fluorescence quenching using ABT-126 (percent quench) (300 nM abt (ABT-126)): −3.78%
- YFP fluorescence quenching using AZD-0328 (percent quench) (300 nM azd0328): 30.92%
- YFP fluorescence quenching using TC-5619/Bradanicline (percent quench) (300 nM brd (TC-5619/Bradanicline)): −0.3%
- YFP fluorescence quenching using CNL001 (percent quench) (1 uM CNL001, first column so headed): 7.331%
- YFP fluorescence quenching using CNL001 (percent quench) (1 uM CNL001, second column so headed): 9.103%
- YFP fluorescence quenching (percent quench) (1 uM CNL002): −3.33%
- YFP fluorescence quenching using ABT-126 (percent quench) (1 uM abt (ABT-126)): −2.6%
- YFP fluorescence quenching using TC-5619/Bradanicline (percent quench) (1 uM brd (TC-5619/Bradanicline)): 45.47%
- YFP fluorescence quenching (percent quench) (10 uM ach (acetylcholine)): 9.47%
- YFP fluorescence quenching (percent quench) (30 uM CNL002): 6.96%
- YFP fluorescence quenching using AZD-0328 (percent quench) (30 uM azd0328): 68.65%
- YFP fluorescence quenching (percent quench) (100 uM ach (acetylcholine)): 6.12%
- YFP fluorescence quenching (percent quench) (1 mM ach (acetylcholine)): −1.56%
- YFP fluorescence quenching (percent quench) (3 mM ach (acetylcholine)): 17.57%
- YFP fluorescence quenching using Facinicline, 30 nM fac (ligand Facinicline 30 nM): 41.32
- YFP fluorescence quenching using Facinicline, 100 nM fac (ligand Facinicline 100 nM): 59.51
- YFP fluorescence quenching using Facinicline, 300 nM fac (ligand Facinicline 300 nM): 74.86
- YFP fluorescence quenching using Facinicline, 10 uM fac (ligand Facinicline 10 uM): 78.53
- YFP fluorescence quenching using Facinicline, 30 uM fac (ligand Facinicline 30 uM): 84.45
- YFP fluorescence quenching using TC-6987, 1 uM tc6987 (ligand TC-6987 1 uM): 38.83
- YFP fluorescence quenching using TC-6987, 10 uM tc6987 (ligand TC-6987 10 uM): 31.59
- YFP fluorescence quenching using TC-6987, 500 uM tc6987 (ligand TC-6987 500 uM): 29.83
